pKd: −log10 of the molar value.
Key:
Conditions in all cases: source organism: Entamoeba histolytica HM-1:IMSS
HLA-A*02:01 = assay: IEDB peptide-MHC binding, purified MHC/direct/fluorescence; filed as Kd, often an IC50 or EC50 that approximates it; ≥ and ≤ were set here for values at or beyond the usual limits of such assays
HLA-A*02:06 = assay: as above
HLA-A*02:11 = assay: as above
HLA-A*02:12 = assay: as above
HLA-A*02:16 = assay: as above
HLA-A*02:19 = assay: as above
HLA-A*03:01 = assay: as above
HLA-A*23:01 = assay: as above
HLA-A*24:03 = assay: as above
HLA-A*26:01 = assay: as above
HLA-A*29:02 = assay: as above
HLA-B*15:01 = assay: as above
HLA-B*15:17 = assay: as above
HLA-B*27:03 = assay: as above
HLA-B*39:01 = assay: as above
HLA-B*40:01 = assay: as above
HLA-B*46:01 = assay: as above
HLA-B*51:01 = assay: as above
HLA-B*57:01 = assay: as above
HLA-A*01:01 = assay: IEDB peptide-MHC binding, purified MHC/competitive/fluorescence; filed as Kd, often an IC50 or EC50 that approximates it; ≥ and ≤ were set here for values at or beyond the usual limits of such assays
HLA-A*11:01 = assay: as above
HLA-A*30:01 = assay: as above
HLA-A*30:02 = assay: as above
HLA-A*66:01 = assay: as above
HLA-B*07:02 = assay: as above
HLA-B*08:01 = assay: as above
HLA-B*14:02 = assay: as above
HLA-B*27:05 = assay: as above
HLA-B*44:02 = assay: as above
HLA-B*53:01 = assay: as above
HLA-B*58:01 = assay: as above

IESNPLFPV
pKd (HLA-A*02:01): ≤ 4.70
pKd (HLA-A*02:06): 7.47
pKd (HLA-A*02:11): ≤ 4.70
pKd (HLA-A*02:12): 6.04
pKd (HLA-A*02:16): ≤ 4.70
pKd (HLA-A*02:19): ≤ 4.70
pKd (HLA-A*03:01): ≤ 4.70
pKd (HLA-A*23:01): ≤ 4.70
pKd (HLA-A*24:03): ≤ 4.70
pKd (HLA-A*26:01): ≤ 4.70
pKd (HLA-A*29:02): ≤ 4.70
pKd (HLA-B*15:01): ≤ 4.70
pKd (HLA-B*15:17): ≤ 4.70
pKd (HLA-B*27:03): ≤ 4.70
pKd (HLA-B*39:01): ≤ 4.70
pKd (HLA-B*40:01): 7.29
pKd (HLA-B*46:01): ≤ 4.70
pKd (HLA-B*51:01): ≤ 4.70
pKd (HLA-B*57:01): ≤ 4.70
pKd (HLA-A*01:01): ≤ 5.30
pKd (HLA-A*11:01): ≤ 5.30
pKd (HLA-A*30:01): ≤ 5.30
pKd (HLA-A*30:02): ≤ 5.30
pKd (HLA-A*66:01): ≤ 5.30
pKd (HLA-B*07:02): ≤ 5.30
pKd (HLA-B*08:01): ≤ 5.30
pKd (HLA-B*14:02): ≤ 5.30
pKd (HLA-B*27:05): ≤ 5.30
pKd (HLA-B*44:02): ≤ 5.30
pKd (HLA-B*53:01): ≤ 5.30
pKd (HLA-B*58:01): ≤ 5.30

From the Immune Epitope Database (IEDB)
